Measurements as given in patent US20260151494A1.
Positions count from the first letter of the chain named.

How the values were obtained:
[1] = target: human serum albumin (human) (UniProt P02768); assay: primary ELISA of colonies, luminescence; negative control antigen
[2] = target: apical domain of CD71 (Screen 3: 'cynomolgus apical domain of human CD71') (cynomolgus (as paragraph 454 words it; ambiguous)); assay: primary ELISA
[3] = target: apical domain of CD71 (Screen 3: 'cynomolgus apical domain of human CD71') (cynomolgus (as paragraph 454 words it; ambiguous)); assay: primary ELISA, RLU ratio to HSA

human serum albumin (human), sequence (P02768 25-609 limits assumed): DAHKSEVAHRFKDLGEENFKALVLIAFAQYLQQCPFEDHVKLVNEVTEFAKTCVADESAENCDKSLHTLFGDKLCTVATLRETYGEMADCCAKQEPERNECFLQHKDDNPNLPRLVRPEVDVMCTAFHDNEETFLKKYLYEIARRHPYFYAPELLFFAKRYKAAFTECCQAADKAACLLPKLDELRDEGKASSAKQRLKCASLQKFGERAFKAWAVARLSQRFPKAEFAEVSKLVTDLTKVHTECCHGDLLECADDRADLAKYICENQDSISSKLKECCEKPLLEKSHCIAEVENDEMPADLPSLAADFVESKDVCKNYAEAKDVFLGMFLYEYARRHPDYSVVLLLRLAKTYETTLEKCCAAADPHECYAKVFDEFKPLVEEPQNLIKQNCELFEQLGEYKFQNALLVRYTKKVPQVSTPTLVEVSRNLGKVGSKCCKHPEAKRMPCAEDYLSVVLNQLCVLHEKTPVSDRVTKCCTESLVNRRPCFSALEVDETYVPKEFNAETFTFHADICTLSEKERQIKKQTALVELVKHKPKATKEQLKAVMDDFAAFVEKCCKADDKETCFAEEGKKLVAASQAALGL

B1: CD71-binding FN3 domain of SEQ ID NO: 117 (designed binder, not shown: small tags and cut ends)
chain: MLPAPKNLVVSRVTEDSARLSWTAPDAAFDSFFIGYLEPQPPGEAIWLLVPGSERSYDLTGLKPGTEYNVTIQGVKGGFPSTPLSAIFTT
B1 gave an HSA, RLU [1] of 3750 RLU.

B2: CD71-binding FN3 domain of SEQ ID NO: 107 (designed binder, not shown: small tags and cut ends)
chain: B1 chain with W47G, L49Q, T82M
B2 gave an HSA, RLU [1] of 3250 RLU.

B3: CD71-binding FN3 domain of SEQ ID NO: 104 (designed binder, not shown: small tags and cut ends)
chain: B1 chain with W47H, L49I, L62Q, T82D, S85V, I87S
B3 was tested, and the HSA, RLU [1] was 29400 RLU.

B4: CD71-binding FN3 domain of SEQ ID NO: 100 (designed binder, not shown: small tags and cut ends)
chain: MLPAPKNLVVSRVTEDSARLSWTAPDAAFDSFYIAYAEPRPDGEAILLLVPGSERSYDLTGLKPGTEYSVLIHGVKGGLLSSPLVASFTT
Work on B4 yielded an HSA, RLU [1] of 7750 RLU.

B5: CD71-binding FN3 domain of SEQ ID NO: 106 (designed binder, not shown: small tags and cut ends)
chain: B4 chain with A28V, L47G, L49Y, V85T
Binder B5 has an HSA, RLU [1] of 2550 RLU.

B6: CD71-binding FN3 domain of SEQ ID NO: 108 (designed binder, not shown: small tags and cut ends)
chain: B4 chain with L49Q, S87K
B6 showed an HSA, RLU [1] of 3350 RLU.

B7: CD71-binding FN3 domain of SEQ ID NO: 103 (designed binder, not shown: small tags and cut ends)
chain: B4 chain with L47I, L49G, V85S, S87Y, F88S
For B7, the HSA, RLU [1] was 18200 RLU.

B8: CD71-binding FN3 domain of SEQ ID NO: 101 (designed binder, not shown: small tags and cut ends)
chain: MLPAPKNLVVSRVTEDSARLSWTAPDAAFDSFGIGYWERRWYGEAIVLTVPGSERSYDLTGLKPGTEYEVTIRGVKGGGYSGPLSAIFTT
B8 showed an HSA, RLU [1] of 4350 RLU.

B9: CD71-binding FN3 domain SEQ ID NO: 283 (designed binder)
chain: MSLPAPKNLVVSRVTEDSARLSWTAPDAAFDSFEIAYQELSLWGEAIVLTVPGSERSYDLTGLKPGTEYYVHIGGVKGGIWSSPLSAYSTT
B9 showed an RLU [2] of 6.14e+06 RLU and an Apical domain:HSA [3] of 229.

B10: CD71-binding FN3 domain SEQ ID NO: 282 (designed binder)
chain: MSLPAPKNLVVSRVTEDSARLSWTAPDAAFDSFDIGYFELTWYGEAIVLTVPGSERSYDLTGLKPGTEYWVSIGGVKGGRFSEPLYARFTT
B10 showed an RLU [2] of 4.85e+06 RLU and an Apical domain:HSA [3] of 365.

B11: CD71-binding FN3 domain of SEQ ID NO: 102 (designed binder, not shown: small tags and cut ends)
chain: MLPAPKNLVVSRVTEDSARLSWTAPDAAFDSFDIGYTEYGGYGEAIILQVPGSERSYDLTGLKPGTEYWVLIQGVKGGGSSVPLVAYFTT
B11 gave an HSA, RLU [1] of 4550 RLU.

B12: CD71-binding FN3 domain SEQ ID NO: 275 (designed binder)
chain: MSLPAPKNLVVSRVTEDSARLSWTAPDAAFDSFEIGYFENLYLGEAIVLTVPGSERSYDLTGLKPGTEYWVQIGGVKGGNWSAPLVAEFTT
In the case of B12, the RLU [2] is reported as 5.44e+06 RLU and the Apical domain:HSA [3] is reported as 515.

B13: CD71-binding FN3 domain SEQ ID NO: 284 (designed binder)
chain: B12 chain with F38W, L41A, L43K, W70M, Q72F, N80V, A83V, V86S, E88I
In the case of B13, the RLU [2] is reported as 4.41e+06 RLU and the Apical domain:HSA [3] is reported as 363.

B14: CD71-binding FN3 domain SEQ ID NO: 278 (designed binder)
chain: B12 chain with Y58H, V86S, E88I
B14 was tested, and the RLU [2] was 5.1e+06 RLU and the Apical domain:HSA [3] was 641.

B15: CD71-binding FN3 domain SEQ ID NO: 296 (designed binder)
chain: B10 chain with R80I, F81W, E83S, Y86S, R88I
In the case of B15, the RLU [2] is reported as 4.82e+06 RLU and the Apical domain:HSA [3] is reported as 141.

B16: CD71-binding FN3 domain SEQ ID NO: 292 (designed binder)
chain: B12 chain with F38W, L41A, L43K, W70V, Q72F, N80V, A83V, P84S, V86S, E88I
Binder B16 has an RLU [2] of 5.29e+06 RLU and an Apical domain:HSA [3] of 355.

B17: CD71-binding FN3 domain SEQ ID NO: 286 (designed binder)
chain: B12 chain with G36V, F38A, N40P, L41V, Y42R, L43F, N80E, A83S, V86S, E88I
B17 gave an RLU [2] of 5.31e+06 RLU and an Apical domain:HSA [3] of 262.

B18: CD71-binding FN3 domain SEQ ID NO: 277 (designed binder)
chain: B10 chain with D34E, W42Y, S72Q, R80G, Y86S, R88I
Binder B18 has an RLU [2] of 5.75e+06 RLU and an Apical domain:HSA [3] of 383.

B19: CD71-binding FN3 domain SEQ ID NO: 280 (designed binder)
chain: B12 chain with P26L, V86S, E88I
B19 showed an RLU [2] of 4.97e+06 RLU and an Apical domain:HSA [3] of 160.

B20: CD71-binding FN3 domain SEQ ID NO: 289 (designed binder)
chain: B12 chain with G36A, N40I, L41A, Y42W, N80A, W81Y, A83T, V86S, E88I
In the case of B20, the RLU [2] is reported as 5.2e+06 RLU and the Apical domain:HSA [3] is reported as 112.

B21: CD71-binding FN3 domain SEQ ID NO: 276 (designed binder)
chain: B12 chain with G36A, N40L, L41D, L43V, N80T, A83G, V86S, E88I, T91I
Binder B21 has an RLU [2] of 4.54e+06 RLU and an Apical domain:HSA [3] of 90.

B22: CD71-binding FN3 domain SEQ ID NO: 285 (designed binder)
chain: B12 chain with P26T, F38W, L41A, L43K, W70V, Q72F, N80V, A83V, V86S, E88I
Binder B22 has an RLU [2] of 5.13e+06 RLU and an Apical domain:HSA [3] of 368.

B23: CD71-binding FN3 domain SEQ ID NO: 279 (designed binder)
chain: MSLPAPKNLVVSRVTEDSARLSWTAPDAAFDSFFIGYLEPQPPGEAIHLYVPGSERSYDLTGLKPGTEYNVTIQGVKGGNWSAPLSAIFTT
B23 was tested, and the RLU [2] was 5.54e+06 RLU and the Apical domain:HSA [3] was 680.

B24: CD71-binding FN3 domain SEQ ID NO: 295 (designed binder)
chain: B23 chain with H48D, N80F, W81P, A83E, S86V, I88T
Binder B24 has an RLU [2] of 6.71e+06 RLU and an Apical domain:HSA [3] of 474.

B25: CD71-binding FN3 domain SEQ ID NO: 294 (designed binder)
chain: B23 chain with P43L, Y50F, N80F, W81P, A83E, S86I, I88S
With B25 the RLU [2] was 7.4e+06 RLU and the Apical domain:HSA [3] was 245.

B26: CD71-binding FN3 domain SEQ ID NO: 281 (designed binder)
chain: B23 chain with H48A, N80F, W81P, A83E, S86I, I88N
Work on B26 yielded an RLU [2] of 6.93e+06 RLU and an Apical domain:HSA [3] of 413.

B27: CD71-binding FN3 domain SEQ ID NO: 290 (designed binder)
chain: B23 chain with N80F, W81P, A83E, S86V, I88T
B27 was tested, and the RLU [2] was 6.87e+06 RLU and the Apical domain:HSA [3] was 158.

B28: CD71-binding FN3 domain SEQ ID NO: 293 (designed binder)
chain: B23 chain with H48D, N80F, W81P, A83H, S86V, I88T
B28 was tested, and the RLU [2] was 6.72e+06 RLU and the Apical domain:HSA [3] was 605.

B29: CD71-binding FN3 domain of SEQ ID NO: 105 (designed binder, not shown: small tags and cut ends)
chain: MLPAPKNLVVSRVTEDSARLSWTAPDAAFDSFHIVYHEPRPSGEAIWLWVPGSERSYDLTGLKPGTEYEVGIVSVKGGDLSVPLSAIFTT
Binder B29 has an HSA, RLU [1] of 3000 RLU.
